Experimental data: publication PMC4465127 (2015)

Target: T1, LIN-3 EGF domain EGF (Caenorhabditis elegans, UniProt Q03345)
T1 chain: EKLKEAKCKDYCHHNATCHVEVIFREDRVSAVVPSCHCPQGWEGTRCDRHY

B1: sLET-23 ECD (protein)
chain: FGNSNAQLWKRCVSPQDCLCSGTTNGISRYGTGNILEDLETMYRGCRRVYGNLEITWIEANEIKKWRESTNSTVDPKNEDSPLKSINFFDNLEEIRGSLIIYRANIQKISFPRLRVIYGDEVFHDNALYIHKNDKVHEVVMRELRVIRNGSVTIQDNPKMCYIGDKIDWKELLYDPDVQKVETTNSHQHCYQNGKSMAKCHESCNDKCWGSGDNDCQRVYRSVCPKSCSQCFYSNSTSSYECCDSACLGGCTGHGPKNCIACSKYELDGICIETCPSRKIFNHKTGRLVFNPDGRYQNGNHCVKECPPELLIENDVCVRHCSDGHHYDATKDVRECEKCRSSSCPKICTVDGHLTNETLKNLEGCEQIDGHLIIEHAFTYEQLKVLETVKIVSEYITIVQQNFYDLKFLKNLQIIEGRKLHNVRWALAIYQCDDLEELSLNSLKLIKTGAVLIMKNHRLCYVSKIDWSSIITSKGKDNKPSLAIAENRDSKLCETEQRVCDKNCNKRGCWGKEPEDCLECKTWKSVGTCVEKCDTKGFLRNQTSMKCERCSPECETCNGLGELDCLTCRHKTLYNSDFGNRMECVHDCPVSHFPTQKNVCEKCHPTCYDNGCTGPDSNLGYGGCKQCKYAVKYENDTIFCLQSSGMNNVCVENDLPNYYISTYDTEGVIETHCEKCSISCKTCSSAGRNVVQNKCVCKHVEYQPNPSERICMDQCPVNSFMVPDTNNTVCKKCHHECDQNYHCANGQSTGCQKCKNFTVFKGDIAQCVSECPKNLPFSNPANGECLDYDIASRQRKTR
Kd: ~3000 nM
